Test results published in the DeepSol protein solubility set.

assay: soluble on expression in E. coli; label from the status in PepcDB or PDB records

Row | Sequence | soluble on expression in E. coli
1 | MLCSRYFTSSLFLWGEALPTLLEEFLNEVEKMLKNQVNTRRIHQLLKELDDPLLENKDLEEKLQAFLDYVKEIPNLPEARKRYRIQKSLEMIEKLRSWFLIDYLECSGEEVDLSTDIQYAKGVGPNRKKKLKKLGIETLRDLLEFFPRDYEDRRKIFKLNDLLPGEKVTTQGKIVSVETKKFQNMNILTAVLSDGLVHVPLKWFNQDYLQTYLKQLTGKEVFVTGTVKSNAYTGQYEIHNAEVTPKEGEYVRRILPIYRLTSGISQKQMRKIFEENIPSLCCSLKETLPERILEKRKLLGVKDAYYGMHFPKTFYHLEKARERLAYEELFVLQLAFQKIRKEREKHGGIPKKIEGKLAEEFIKSLPFKLTNAQKRAHQEIRNDMISEKPMNRLLQGDVGSGKTVVAQLAILDNYEAGFQTAFMVPTSILAIQHYRRTVESFSKFNIHVALLIGATTPSEKEKIKSGLRNGQIDVVIGTHALIQEDVHFKNLGLVIIDEQHRFGVKQREALMNKGKMVDTLVMSATPIPRSMALAFYGDLDVTVIDEMPPGRKEVQTMLVPMDRVNEVYEFVRQEVMRGGQAFIVYPLIEESDKLNVKSAVEMYEYLSKEVFPEFKLGLMHGRLSQEEKDRVMLEFAEGRYDILVSTTVIEVGIDVPRANVMVIENPERFGLAQLHQLRGRVGRGGQEAYCFLVVGDVGEEAMERLRFFTLNTDGFKIAEYDLKTRGPGEFFGVKQHGLSGFKVADLYRDLKLLEWAREDVQEIDVEGIELPEEIKLIEVG | soluble
2 | MSLSRPLLFALTALSLTAASLAHAADKKAADKPAPSAVSKADKALHDKFLTLDTHLDTPAHFGRPGWDIADHHEVEHDFSQVDLPRMNQGGLDGGFFVVYIGQGELTEKGYTYARDYALHRTIEIREMLAANPDTFEMALTSDDARRIAKAGKKFAFVSMENSWPVGEDLSLVETFYKEGLRMAGPVHFRNNQLADSSTDPKGKIWNGYSPLGLRWLAEANRLGIVIDVSHASDDVVDQSVALSKAPIIASHSGPKAVYDHPRNLDDARLKKIADAGGAICINSIYLTDTTPSPERKAALEALGRAPDMKTATPEAVKAYADKRAAIDKAHPAARGDFDLYMKSMLHVLKVAGPKGVCVGADWDGGGGMDGFEDITDLPKITARLKAEGYSDADIEAIWSGNVLRIVDAAQAYAKSVTKEGHHHHHH | soluble
3 | MVDIEALQKAIGVTSLSYDEDDDDDDENDAFYSSSHRVSHNYNQPPLPPIPTRDDMSNYSSSRNTPLVRRD | not soluble
4 | MGGGGEDEYESLPTHSVPVHLTAGALAGAVEHCVMFPFDSVKTRMQSLCPCPETKCPTPVHSLMSIVKREGWLRPLRGVNAVAAGSMPAHALYFTVYEKMKGYLTGNSAGHSNTLAYGASGVVATLIHDAIMNPAEVVKQRMQMAFSPYGSSLECARCVYNREGVAAFYRSYTTQLAMNVPFQAIHFMSYEFWQHVLNPEHKYDPKSHLIAGGLAGGLAAALTTPMDCVKTVLNTQQAAEADPANRRIFLQARYRYRGISDAVRTIYSQRGLSGFSCGLQARVIFQVPATALSWSVYELFKFMLSFEGGHSS | not soluble
5 | MGSDKIHHHHHHMFPLVTITGEPFERGQQYGAATAALIRHSIASYARLFAYRRGMDWEAVQQAALAYEPLLHDVAPDLLTEMRGIAVGASRTLAEIIALNVRTELLAGVGVGFHHPEAAAALARNRAAGVPQHQEQLPATPATGSDDGECTTAAASPPATANGRVWLAQTWDWQGDQRAACVLLRVSGPDTPTLLTLTEAGMVAKIGLNEAGIAVGLNLLRSRADGQQQGMPVHVLLRQMLQSTDTVTARRLVSQIPAAGSSCITLAGADGELVALELTPTGIAEIPAQEGLLAHANHCLDGGTAAGECPLEPTSTTRERYGRAWELLHAAAGQIDLDVLQVILRDHDGAPRCICRHPDPRVAAVDRNESVCGVIIDLRGRTMHVAANIPCQAPFVPFML | not soluble
6 | MGHHHHHHSHMTTNSLLIIDFEFTMPDGKYSPQNFFPEIIEAGIVKSIDDEVVETFSSYVRPKKFPKLTKRCKSFLKITQKQVDEGMRFEDFIRKLNELDPEKNSTIITWGNMDMKVLKQNCMFNHIPFPFKGEMRDLSLEYKNFFGDRTLTGLWKAAEEYGDSGTGTHHKALDDALTAYKLFKLVEQDKQYLEKPKPPTIGERIDLTELLKRAT | soluble
7 | MKVKEHCGIVGVYADNSPMISYESLKLLQHRGQESAGITYRKDGSLVTMKGLGLVEEALDPRLLPNAKLSIGHVRYSTTGKGSLDEAQPLSNGKIAIAFNGTITNYFKFGTSTDTEFILKVLSEAPNIKEGIRRLVDLADGAYSLVVLTNEGELIGFRDPKGFRPLVLGKINNGYIIASEDSVIRQLGGKPLRDVKPGEMIYIKDGEIESEVISRDRVSFCSFEYIYFARPDSIIDGVSVYNSRIKLGEILAENHGVDADVAIPVPESSIPIAIGFSRKSKIPMEYGLIRTLVAKRSFIMPTQDKRNAVLEEKFGIVKSVVENKKVVVIDDSIVRGNTMRKIVRMIRDNGAKEVHVRIGSPKVKYPCYMGIDFPLSKELIASEKDEKEIAKYIGADSVEFLTVEEMIKAIGRPDLCHACFSGVYPLKFSYNLQVLESIFKKVS | soluble
8 | MEILTLEQQKSFIKAIDGHKLEVLFLLALGTGLRLGELLGLKWFDIDFKKSNLTVKRTLQRTYFIDKTGNRELKVLEQGPKTSNSYRTVPIPKDVLNKLKEHKVNQNTDILKAGELYINNNYVFCNELGIPIDDKRPLRNLKSILNSLNIEPIKFHGLRKTYATRLFENDVPPKTVQVLMGHYDISITLNIYTQVMEDKKVEAVEKLDKIFSLEHHHHHH | soluble
9 | MGSDKIHHHHHHMLNETKELLKDYYGIDDDTFKLSQEIMEEIKDKFEEIKEIREYNQYKVLKAMQESKLSDMHFNWTTGYGYNDIGREKIEEIYSKVFNTEDALVRPIIVNGTHALTLCIQGIVRPGDEILSVTGRPYDTLEGVIGIREEKGSLKEYGVTYDDVDFLEDGNLDLEGIKSKINDRTKLVMIQRSKGYSWRKSLSISDIKEAIEVIKSVKPEAIVMVDNCYGEFLDTKEPTDVGADVMAGSLIKNPGGGLALTGGYIAGRKDLIELISYRMTSPGIGKECGLTFGTTRNVLQGFFLAPYIVSQAVMGAIFCSRAFEKLGYDVLPKYDDLRSDIIQCIRLNNADEVISFCEGIQEAAPVDSYVKPVPWDMPGYESEVIMAAGAFIQGSSIELSADAPIRPPYNVYFQGGLTFDHSKMGTLKAIEFIKKLKK | not soluble
10 | MAGDPMITVVGVRFKKAGKIYYFSPGDLNINKGDDVIVETARGIEYGNCVIGLKQVGEESIVSPLKSVIRVATDEDEIKYRENKNKEKEAFNICLSKIKKHELVMKLIDVEYTFDNNKIIFYFTAEGRVDFRELVKDLASVFRTRIELRQIGVRDEAKMIGGFGVCGRPMCCALYLGDFAPVSIKMAKEQNLSLNPSKISGVCGRLMCCLNYEQETYETIRKRMPKVGSIVSTKEYGKAEVVDNNIIKEAVKIKFTAEDGESISEAEVHIKDLKLISGSYEGNVDESQIKLELEDVDAKEVKELFKTDLEHHHHHH | not soluble
11 | MKKIMTIFGTRPEAIKMAPLVKALEQEKMLEPIVVVTAQHREMLDSVLSTFEIKPKYDLNIMKSGQTLSEITSKSITQLEQVIQLEKPDMVLVHGDTMTTFAGGLAAFYNQVPIGHVEAGLRSYDKYSPFPEEVNRQLVGVLADLHFAPTKNAASHLLSEGKYSESVVVTGNTAIDAMKYTVDDNYKSNIMDKYHDKKFILMTAHRRENIGKPMENIFKAVRRLIDEYTDLALVYPMHKNPKVREVAQKILGSHDRIELIEPLDVVDFHNFAKKSYFILTDSGGIQEEAPSFNKPVLVLRSVTERPEGVEAGTLKVIGTNKQNVYQAAKELIDDERLYHQMSEASNPYGDGFASERIVNHIKYYLNLITEKPSDF | not soluble
12 | MGSSHHHHHHSSGLVPRGSHGLVPRGSHMSDDMSMGLPSSAGEHGVLRSMQEVAMSSQEASKMLRTYNIAWWGNNYYDVNELGHISVCPDPDVPEARVDLAQLVKTREAQGQRLPALFCFPQILQHRLRSINAAFKRARESYGYNGDYFLVYPIKVNQHRRVIESLIHSGEPLGLEAGSKAELMAVLAHAGMTRSVIVCNGYKDREYIRLALIGEKMGHKVYLVIEKMSEIAIVLDEAERLNVVPRLGVRARLASQGSGKWQSSGGEKSKFGLAATQVLQLVETLREAGRLDSLQLLHFHLGSQMANIRDIATGVRESARFYVELHKLGVNIQCFDVGGGLGVDYEGTRSQSDCSVNYGLNEYANNIIWAIGDACEENGLPHPTVITESGRAVTAHHTVLVSNIIGVERNEYTVPTAPAEDAPRALQSMWETWQEMHEPGTRRSLREWLHDSQMDLHDIHIGYSSGIFSLQERAWAEQLYLSMCHEVQKQLDPQNRAHRPIIDELQERMADKMYVNFSLFQSMPDAWGIDQLFPVLPLEGLDQVPERRAVLLDITCDSDGAIDHYIDGDGIATTMPMPEYDPENPPMLGFFMVGAYQEILGNMHNLFGDTEAVDVFVFPDGSVEVELSDEGDTVADMLQYVQLDPKTLLTQFRDQVKKTDLDAELQQQFLEEFEAGLYGYTYLEDE | soluble
13 | MGSDKIHHHHHHMPERVLNFRALFLHGLYKMDKPKAYCRLFLPSFLLLSACTVDISQPDPSATAVDAEAKTWAVKFQHQSSFTEQSIKEITAPDLKPGDLLFSSSLGVTSFGIRVFSTSSVSHVAIFLGDNNVAEATGAGVQIVSLKKAMKHSDKLFVLRVPDLTPQQATDITAFANKIKDSGYNYRGIVEFIPFMVTRQMCSLNPFSEDFRQQCVSGLAKAQLSSVGEGDKKSWFCSEFVTDAFAKAGHPLTLAQSGWISPADLMHMRIGDVSAFKPETQLQYVGHLKPGIYIKAGRFVGLTR | not soluble
14 | GPGSMASNITAERYEQLKKERTFHKFTYRGLEIDPLLALSEEEFKALVHARARRNMNRHADRRPPVLLKRLREAKKHVKVGEKPKAVKTHLRDVVITPEMVGSVVAIYNGHQFNAVEIKGEMIGHYLGEFSMSYRPVLHGRPGVGATHSSRFIPIK | soluble
15 | MGSDKIHHHHHHMNKDLFISSFDHRVYKKQPLAERMRPHSLNDVTGQSHLVGEKGLLSRIVAAGSIGSMIFWGPPGTGKTTVARLLALETNFAFEQVSAIFTGVAELKKIFESAQARFMSGSQTVLFVDEIHRFNRAQQDSFLPVMEDGTVILIGATTENPSFELNAALLSRARVLTFLPHDNESLGMLLKRAEALEEKTLPLDDNARDVLIDMSDGDARAALTLAEEVWSVARPGEIFDAAALRKIVQRRAPIYDKGRDGHYNLISALHKSVRGSDPDAALYYLARMFDAGEDPLYIGRRLVRMAVEDVGLADPQALVICNAAKDAYDYLGSPEGELALAQACLYVATAPKSNATYLAYKAAMRCARKNGSLPPPKHILNAPTKFMKEEGYGHGYCYDHDEPDAFSGQEYFPEKLGRQSYYQPVERGFEREIAKRLEWWKQLRKKRANQK | not soluble
16 | FSSREQPQQNEGQIQKLNALKPDNRIESEGGLIETWNPNNKPFQCAGVALSRCTLNRNALRRPSYTNGPQEIYIQQGKGIFGMIYPGCPSTFEEPQQPQQRGQSSRPQDRHQKIYNFREGDLIAVPTGVAWWMYNNEDTPVVAVSIIDTNSLENQLDQMPRRFYLAGNQEQEFLKYQQEQGGHQSQKGKHQQEEENEGGSILSGFTLEFLEHAFSVDKQIAKNLQGENEGEDKGAIVTVKGGLSVIKPPTDEQQQRPQEEEEEEEDEKPQCKGKDKHCQRPRGSQSKSRRNGIDETICTMRLRHNIGQTSSPDIYNPQAGSVTTATSLDFPALSWLRLSAEFGSLRKNAMFVPHYNLNANSIIYALNGRALIQVVNCNGERVFDGELQEGRVLIVPQNFVVAARSQSDNFEYVSFKTNDTPMIGTLAGANSLLNALPEEVIQHTFNLKSQQARQIKNNNPFKFLVPPQESQKRAVA | soluble
17 | MYKILEKKEIAMRNTWYKVYAPHVAKKVQPGQFVIVRAFPNGERIPLTPVMWDREEGWIVLIVFTRGKTTMRMAVELKEGDSLLNVAGPLGTPVPMEKFGKILAIGAYTGIVEVYPIAKAWQEIGNDVTTLHVTFEPMVILKEELEKAVTRHIVEPVPLNPNQDFLANMKNVSQRLKEKVRELLESEDWDLVFMVGPVGDQKQVFEVVKEYGVPMKVDLHPIMVDGTGMCGACRVTVGGEVKFACVDGPEFDAYQVDWDELIHRVGFYAKLEKLALEKYMEELKAKGVILEHHHHHH | not soluble
